We go through one molecule from US20040142862A1, “Methods and compositions for modulating agonist-induced downregulation of G protein-coupled receptors” (The Regents of the University of California, priority 2002, published 2004).

One experiment concerns the target T1, DOR (Mus musculus, UniProt P32300).
T1 construct: co-immunoprecipitated specifically with full length DOR but not with MOR expressed at similar levels; expressed in transfected cells
Nature of the experiment: Agonist-induced downregulation of DOR, radioligand binding. In kind it is cell-based. The settings on record: 5 μM DADLE 3 hours.

A further experiment deals with T2, cytoplasmic tail of DOR (Mus musculus, UniProt P32300).
T2 construct: GST; made in house
T2 sequence (P32300 312-371): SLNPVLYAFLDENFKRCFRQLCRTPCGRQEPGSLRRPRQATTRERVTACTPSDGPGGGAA
Nature of the experiment: GST affinity chromatography, binding to DOR cytoplasmic tail. The settings on record: in vitro. How it is done: Sequence homology to a non-mammalian protein was observed between the carboxyl-terminal regions of GASP1 and Vac8p, a yeast protein involved in late endocytic trafficking (26).
24. Affinity chromatography was carried out as previously described (25).

The next experiment has as its target T3, B2AR-Ala (Homo sapiens, UniProt P07550).
T3 construct: expressed in transfected cells
Nature of the experiment: Biotin protection-degradation assay, endocytosed B2AR-Ala. It is filed as cell-based. The settings on record: cells overexpressing cGASP1 vs B2AR-Ala alone, isoproterenol. How it is done: 17. Biotin protection-degradation assay for proteolysis of surface-biotinylated receptors following endocytosis: Cells were grown to 80% confluency washed 2 times with cold phosphate buffered saline (PBS) then incubated in 3 μg/ml cleavable biotin (Pierce) in PBS at 4° C. for 30 minutes with gentle agitation. Cells were washed 2 times with Tris buffered saline and placed back into medium for treatment. Cells labeled “100% biotinylated” were left on ice in PBS. Cells labeled “100% stripped” were also left on ice in PBS then stripped as described below. Cells were treated with 5 μM agonist for 30 minutes or 3 hours, washed 2 times with cold PBS and the remaining cell surface biotinylated receptors were stripped in 50 mM glutathione, 0.3 M NaCl, 75 mM NaOH, 1% fetal bovine serum at 4° C. for 30 minutes. Glutathione was quenched with a 20 minute wash of PBS with 50 mM iodoacetamide, 1% bovine serum albumin. Cells were extracted in 0.1% Triton X-100, 150 mM NaCl, 25 mM KCl, 10 mM Tris-HCl pH 7.4 containing 1 μM leupeptin, 1 μM pepstatin A, 1 μM aprotinin, 2.5 μM Pefabloc SC, and cell debris was removed by centrifugation at 10,000×g for 10 minutes at 4° C. Receptors were immunoprecipitated using M2 antibody (Sigma), rabbit anti mouse linker (Jackson Immunoresearch) and protein A sepharose (Pharmacia) overnight. […]

T1 sequence (P32300 whole entry): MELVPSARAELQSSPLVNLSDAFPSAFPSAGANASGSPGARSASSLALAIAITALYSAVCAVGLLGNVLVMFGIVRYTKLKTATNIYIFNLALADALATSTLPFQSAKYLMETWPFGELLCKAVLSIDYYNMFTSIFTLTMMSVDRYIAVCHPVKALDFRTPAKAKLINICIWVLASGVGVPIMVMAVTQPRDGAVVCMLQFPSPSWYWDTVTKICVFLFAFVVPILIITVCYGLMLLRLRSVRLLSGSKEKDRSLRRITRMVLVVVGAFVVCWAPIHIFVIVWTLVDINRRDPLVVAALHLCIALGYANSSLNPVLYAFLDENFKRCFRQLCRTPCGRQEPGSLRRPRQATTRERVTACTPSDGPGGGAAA

B1: cGASP1: carboxyl-terminal fragment of the GASP1 protein, corresponding to the C-terminal 497 residues of GASP1 (protein)
chain: SETEEETIFGSWFWDGKEVSEEAGPCCVSKPEDDEEMIVESWFWSRDKAIKETGTVATCESKPENEEGAIVGSWFEAEDEVDNRTDNGSNCGSRTLADEDEAIVGSWFWAGDEAHFESNPSPVFRAICRSTCSVEQEPDPSRRPQSWEEVTVQFKPGPWGRVGFPSISPFRFPKEAASLFCEMFGGKPRNMVLSPEGEDQESLLQPDQPSPEFPFQYDPSYRSVQEIREHLRAKESTEPESSSCNCIQCELKIGSEEFEELLLLMEKIRDPFIHEISKIAMGMRSASQFTRDFIRDSGVVSLIETLLNYPSSRVRTSFLENMIRMAPPYPNLNIIQTYICKVCEETLAYSVDSPEQLSGIRMIRHLTTTTDYHTLVANYMSGFLSLLATGNAKTRFHVLKMLLNLSENLFMTKELLSAEAVSEFIGLFNREETNDNIQIVLAIFENIGNNIKKETVFSDDDFNIEPLISAFHKVEKFAKELQGKTDNQNDPEGDQEN
In the case of B1, the figures for the “effect on agonist-induced downregulation of DOR” value in the experiment with DOR (cGASP1 overexpressed 30 fold over endogenous GASP1) and in the experiment with DOR (cGASP1 overexpressed 40-fold over endogenous GASP1) were “less significantly” and “significantly inhibited”, respectively. The “input recovered on washed GST-DOR” value with cytoplasmic tail of DOR is recorded as 3-5%. In addition, in the experiment with B2AR-Ala, the “stability of endocytosed B2AR-Ala (post-endocytic proteolysis)” value is on record as “significantly more stable”.
